Reference: US20220040319A1 (Regeneron, published 2022)
Like-named read-outs stand apart in the source and are kept apart here.

Experiments:
human MET on cells [1] = target: T1, human MET on cells (human, UniProt P08581 25-1390); experiment: cell-based or functional assay
[2] = target: T2, human MET (exon14 skip mutation) on NCI-H596 cells (human, UniProt P08581 25-1390); experiment: cell-based or functional assay
human MET on cells [3] = target: T1, human MET on cells; experiment: cell-based or functional assay; remark: listed apart in the source
[4] = target: T2, human MET (exon14 skip mutation) on …; experiment: cell-based or functional assay; remark: listed apart in the source
human MET on cells [5] = target: T1, human MET on cells; experiment: cell-based or functional assay; remark: listed apart in the source
human MET on cells [6] = target: T1, human MET on cells; experiment: cell-based or functional assay; remark: listed apart in the source
[7] = target: T3, hMET.mFc (dimeric human MET) (human, UniProt P08581 27-307); experiment: SPR 37C, antibody captured
T3 construct: soluble dimeric MET protein
T3 sequence (P08581 other isoform, or with tags, fused parts or gaps limits assumed, chain 1 of 2): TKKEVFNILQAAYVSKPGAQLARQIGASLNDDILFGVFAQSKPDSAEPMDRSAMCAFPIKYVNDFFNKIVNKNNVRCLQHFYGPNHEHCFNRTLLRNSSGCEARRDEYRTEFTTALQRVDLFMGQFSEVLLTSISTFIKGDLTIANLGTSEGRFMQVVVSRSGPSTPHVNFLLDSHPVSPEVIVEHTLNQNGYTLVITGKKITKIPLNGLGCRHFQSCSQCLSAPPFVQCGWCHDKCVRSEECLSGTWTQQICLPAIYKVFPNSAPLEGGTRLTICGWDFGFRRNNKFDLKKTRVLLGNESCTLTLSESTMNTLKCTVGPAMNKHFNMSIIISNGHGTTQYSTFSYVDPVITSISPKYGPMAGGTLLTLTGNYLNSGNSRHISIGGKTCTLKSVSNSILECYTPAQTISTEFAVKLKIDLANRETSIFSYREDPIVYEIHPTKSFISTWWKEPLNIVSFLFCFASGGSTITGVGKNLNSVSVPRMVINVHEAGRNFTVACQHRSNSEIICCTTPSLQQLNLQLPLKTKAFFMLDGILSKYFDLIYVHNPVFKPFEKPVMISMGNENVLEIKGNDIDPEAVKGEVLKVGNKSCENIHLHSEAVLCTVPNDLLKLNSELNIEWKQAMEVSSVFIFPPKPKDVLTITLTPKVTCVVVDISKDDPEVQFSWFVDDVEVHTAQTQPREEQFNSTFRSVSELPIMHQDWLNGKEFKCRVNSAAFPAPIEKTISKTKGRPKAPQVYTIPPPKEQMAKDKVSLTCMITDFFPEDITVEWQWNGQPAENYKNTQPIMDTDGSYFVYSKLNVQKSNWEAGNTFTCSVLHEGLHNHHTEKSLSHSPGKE
T3 sequence (P08581 27-307 limits assumed, chain 2 of 2): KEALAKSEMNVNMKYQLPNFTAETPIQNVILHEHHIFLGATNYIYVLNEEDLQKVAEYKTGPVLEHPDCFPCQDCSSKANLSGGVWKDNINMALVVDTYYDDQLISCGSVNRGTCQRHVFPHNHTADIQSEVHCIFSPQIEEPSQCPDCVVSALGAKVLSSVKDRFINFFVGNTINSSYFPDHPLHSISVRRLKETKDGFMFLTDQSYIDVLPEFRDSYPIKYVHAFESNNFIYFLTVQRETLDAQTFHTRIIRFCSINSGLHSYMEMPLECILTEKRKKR
Procedure: (§1) The anti-Met antibodies tested in this example were bivalent monospecific binders of MET.
(§2) Kinetic association (kₐ) and dissociation (kd) rate constants were determined by fitting the real-time sensorgrams to a 1:1 binding model using Scrubber 2.0c curve fitting software. Binding dissociation equilibrium constant (KD) and dissociative half-life (t1/2) were calculated from the kinetic rate constants as: […]

[8] = target: T4, hMet.mmh (human MET extracellular domain with C-terminal myc-myc-hexahistidine tag) (human, UniProt P08581 309-914; P08581 27-307); experiment: SPR 37C, antibody captured
T4 construct: soluble monomeric MET; also called monomeric human MET
T4 sequence (P08581 other isoform, or with tags, fused parts or gaps limits assumed, chain 1 of 2): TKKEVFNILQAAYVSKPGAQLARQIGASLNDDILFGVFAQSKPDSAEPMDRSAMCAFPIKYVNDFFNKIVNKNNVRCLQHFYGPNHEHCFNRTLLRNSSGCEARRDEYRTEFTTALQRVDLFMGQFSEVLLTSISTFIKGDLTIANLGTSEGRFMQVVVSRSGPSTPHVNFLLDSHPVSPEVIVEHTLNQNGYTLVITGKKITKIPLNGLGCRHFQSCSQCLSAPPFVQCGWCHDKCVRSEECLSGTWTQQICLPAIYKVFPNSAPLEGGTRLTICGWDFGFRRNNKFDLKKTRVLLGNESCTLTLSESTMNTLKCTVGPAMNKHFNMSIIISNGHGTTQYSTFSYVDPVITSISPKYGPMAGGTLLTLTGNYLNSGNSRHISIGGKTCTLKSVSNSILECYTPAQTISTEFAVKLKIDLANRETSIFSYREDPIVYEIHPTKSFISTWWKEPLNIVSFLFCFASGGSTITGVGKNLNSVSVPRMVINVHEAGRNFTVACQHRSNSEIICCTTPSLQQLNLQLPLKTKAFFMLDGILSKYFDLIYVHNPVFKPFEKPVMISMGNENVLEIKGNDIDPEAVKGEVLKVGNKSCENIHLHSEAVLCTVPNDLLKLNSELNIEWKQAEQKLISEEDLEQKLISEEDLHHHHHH
T4 sequence (P08581 27-307 limits assumed, chain 2 of 2): as the sequence (P08581 27-307 limits assumed, chain 2 of 2) above
Procedure: as §1, §2

[9] = target: T4, hMet.mmh (human MET extracellular …); experiment: SPR 37C, antibody captured; remark: listed apart in the source
Procedure: (§3) Kinetic association (kₐ) and dissociation (kd) rate constants were determined as described in Example 3.

human MET on cells [10] = target: T1, human MET on cells; experiment: flow cytometry, 10 µg/ml antibody on EBC-1 cells, Alexa647 anti-human secondary
Procedure: (§4) After one additional wash with FACS buffer, samples were fixed with Cytofix (BD Biosciences, #554655), filtered with FACS buffer and run on an iQue flow cytometer (Intelicyte). Mean fluorescence intensity (MFI) data was determined using FlowJo software (FlowJo LLC).

human MET on cells [11] = target: T1, human MET on cells; experiment: flow cytometry, 10 µg/ml antibody on MKN-45 cells, Alexa647 anti-human secondary
Procedure: as §4

human MET on cells [12] = target: T1, human MET on cells; experiment: flow cytometry, 10 µg/ml antibody on U87MG cells, Alexa647 anti-human secondary
Procedure: as §4

human MET on cells [13] = target: T1, human MET on cells; experiment: cell-based or functional assay; remark: listed apart in the source
human MET on cells [14] = target: T1, human MET on cells; experiment: flow cytometry, 10 µg/ml antibody on MDA-MB-231 cells, Alexa647 anti-human secondary
Procedure: as §4

human MET on cells [15] = target: T1, human MET on cells; experiment: flow cytometry, 10 µg/ml antibody on A549 cells, Alexa647 anti-human secondary
Procedure: as §4

human MET on cells [16] = target: T1, human MET on cells; experiment: cell-based or functional assay; remark: listed apart in the source
human MET on cells [17] = target: T1, human MET on cells; experiment: flow cytometry, 10 µg/ml antibody on SNU-5 cells, Alexa647 anti-human secondary
Procedure: as §4

human MET on cells [18] = target: T1, human MET on cells; experiment: flow cytometry, 10 µg/ml antibody on Hs746t cells, Alexa647 anti-human secondary
Procedure: as §4

[19] = target: T5, MET (c-Met, hepatocyte growth factor receptor) on cells (human, UniProt P08581 25-1390); experiment: cell-based or functional assay
T5 sequence (P08581 25-1390 limits assumed, form in doubt): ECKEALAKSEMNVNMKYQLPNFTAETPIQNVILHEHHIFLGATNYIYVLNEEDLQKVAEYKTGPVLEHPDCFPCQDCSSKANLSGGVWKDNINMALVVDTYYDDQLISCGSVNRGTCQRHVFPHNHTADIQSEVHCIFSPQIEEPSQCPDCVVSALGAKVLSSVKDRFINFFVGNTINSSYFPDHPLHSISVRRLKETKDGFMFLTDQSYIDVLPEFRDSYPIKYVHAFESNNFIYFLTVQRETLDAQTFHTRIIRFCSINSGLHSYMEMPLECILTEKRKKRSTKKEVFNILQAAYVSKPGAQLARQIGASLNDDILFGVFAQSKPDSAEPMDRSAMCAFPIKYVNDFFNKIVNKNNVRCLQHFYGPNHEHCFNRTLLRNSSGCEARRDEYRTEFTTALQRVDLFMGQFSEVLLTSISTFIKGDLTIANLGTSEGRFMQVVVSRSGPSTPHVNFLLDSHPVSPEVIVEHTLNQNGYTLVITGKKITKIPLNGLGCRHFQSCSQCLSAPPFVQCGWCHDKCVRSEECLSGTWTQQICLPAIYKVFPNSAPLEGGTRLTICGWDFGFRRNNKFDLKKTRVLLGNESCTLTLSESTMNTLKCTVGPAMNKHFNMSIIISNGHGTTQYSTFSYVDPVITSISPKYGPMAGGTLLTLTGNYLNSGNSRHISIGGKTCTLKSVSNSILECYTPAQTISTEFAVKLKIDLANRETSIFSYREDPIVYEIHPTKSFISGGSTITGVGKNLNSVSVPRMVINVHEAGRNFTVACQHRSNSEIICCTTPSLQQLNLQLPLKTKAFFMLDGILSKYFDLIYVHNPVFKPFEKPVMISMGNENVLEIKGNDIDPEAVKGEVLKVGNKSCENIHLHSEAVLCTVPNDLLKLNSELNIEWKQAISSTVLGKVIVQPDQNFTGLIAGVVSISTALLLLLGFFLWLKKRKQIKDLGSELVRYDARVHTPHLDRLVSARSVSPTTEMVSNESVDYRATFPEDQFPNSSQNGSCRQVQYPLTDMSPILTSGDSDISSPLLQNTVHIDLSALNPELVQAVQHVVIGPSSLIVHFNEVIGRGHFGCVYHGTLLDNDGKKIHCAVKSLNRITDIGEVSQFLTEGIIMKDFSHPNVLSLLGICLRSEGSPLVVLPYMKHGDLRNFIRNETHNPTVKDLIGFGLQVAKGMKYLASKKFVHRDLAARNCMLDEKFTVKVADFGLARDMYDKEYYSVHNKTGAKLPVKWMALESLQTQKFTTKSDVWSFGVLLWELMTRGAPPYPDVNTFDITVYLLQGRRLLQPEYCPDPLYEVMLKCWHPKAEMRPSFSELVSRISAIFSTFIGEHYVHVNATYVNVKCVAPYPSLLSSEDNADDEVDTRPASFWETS

[20] = target: T5, MET (c-Met, hepatocyte growth factor …); experiment: cell-based or functional assay; remark: listed apart in the source
[21] = target: T4, hMet.mmh (human MET extracellular …); experiment: SPR 37C, antibody captured; remark: listed apart in the source
Procedure: as §3

T1 sequence (P08581 25-1390 limits assumed, form in doubt): as above

B1: H4H14639D (bispecific antibody, human IgG4, V domains shown)
VH 1: EVQLVESGGGLVQPGTSLRLSCAASGFTFDDYAMHWVRQAPGKGLEWVSGITWNSYNIDYADSVKGRFTISRDNAKNSLYLQMNSLRAEDTALYYCAKDDDYSNYVYFDYWGQGTLVTVSS
VH 2: EVQLVESGGGLVQPGGSLRLSCAASGFIVTTNYMTWLRQAPGKGLEWVSLIYSSGHTYYADSVKGRFTISRHNSKNTLYLQMDSLRAEDTAVYYCASAFAADVFDIWGQGTMVTVSS
VL: not shown
notes: MET x MET bispecific, human IgG4; also called No. 122; MET×MET bispecific antibody
Which results are given for B1?
Relative Cell Growth (n = 3), Hs746T cells, 5 µg/ml, 5 days (human MET on cells [1]): 0.647 normalized to control; Relative Cell Growth (n = 3), NCI-H596 cells in soft agar, 5 µg/ml, two weeks [2]: 1.07 normalized to control; Relative Cell Growth (n = 3), SNU5 cells, 5 µg/ml, 5 days (human MET on cells [3]): 0.271 normalized to control; Relative MET Level, NCI-H596 cells, 18 h [4]: 0.24 relative to control (hFc); Relative Cell Growth (n = 3), EBC-1 cells, 0.1 µg/mL H4H14639D (human MET on cells [5]): 0.397 relative to control; Relative Cell Growth (n = 3), EBC-1 cells, 1 µg/mL H4H14639D (human MET on cells [5]): 0.462 relative to control; IC50, 6-day in vitro cytotoxicity, A549 (human MET on cells [6]): 0.17 nM; IC50, 6-day in vitro cytotoxicity, EBC-1 (human MET on cells [6]): 0.37 nM; IC50, 6-day in vitro cytotoxicity, Hs746t (human MET on cells [6]): 0.44 nM; Max % Kill, 6-day in vitro cytotoxicity, A549 (human MET on cells [6]): 29%; Max % Kill, 6-day in vitro cytotoxicity, EBC-1 (human MET on cells [6]): 66%; Max % Kill, 6-day in vitro cytotoxicity, Hs746t (human MET on cells [6]): 35%

B2: H4H13306P2 (antibody, human IgG4, V domains shown)
VH: B1 VH 1
VL: not shown
notes: human IgG4 Fc (H4H), bivalent monospecific; also called parental antibody 1; M1
Which results are given for B2?
Kd [7]: 2.15 nM; T½ [7]: 4.4 min; Kd [8]: 109 nM; T½ [8]: 0.7 min; T½ [9]: 0.7 min

B3: H4H14635D (bispecific antibody, human IgG4, V domains shown)
VH 1: QVQLVESGGGVVQPGRSLRVSCVVSGFTFSSFGMHWVRQAPDKGLEWVAVIWYDGSNDYYSDSVKGRFTISRDNSKNTLFLQMNRLRAEDTAVYYCARANNWNRFDAFDLWGQGTMVTVSS
VH 2: B1 VH 2
VL: not shown
notes: MET x MET bispecific, human IgG4; also called No. 42
Which “FACS Binding (MFI Fold Above Isotype Control)” value (human MET on cells [10]) does the source give for B3 here?
Its value is 263 fold above isotype control.

And the “FACS Binding (MFI Fold Above Isotype Control)” value (human MET on cells [11])?
Its value is 183 fold above isotype control.

And the “FACS Binding (MFI Fold Above Isotype Control)” value (human MET on cells [12])?
The value was 18 fold above isotype control.

And the “% Inhibition, HEK293/SRE-Luc Blocking Activity (HGF, 1 h mAb pre-bind)” value (human MET on cells [13])?
The value was 85%.

And the “EC50, Ligand (HGF)-Independent HEK293/SRE-Luc Activation” value (human MET on cells [13])?
Its value is 1.4 nM.

What about the “Fold Response, Ligand (HGF)-Independent HEK293/SRE-Luc Activation” value (human MET on cells [13]) of the same binder?
The value was 2.2 fold.

And the “IC50, HEK293/SRE-Luc Blocking Activity (HGF, 1 h mAb pre-bind)” value (human MET on cells [13])?
The value was 0.19 nM.

What about the “FACS Binding (MFI Fold Above Isotype Control)” value (human MET on cells [14]) of the same binder?
Its value is 11 fold above isotype control.

What about the “FACS Binding (MFI Fold Above Isotype Control)” value (human MET on cells [15]) of the same binder?
Its value is 12 fold above isotype control.

And the “Relative MET Level, SNU5 cells, 18 hrs” value (human MET on cells [16])?
Its value is 0.27 relative to control (hFc).

What about the “FACS Binding (MFI Fold Above Isotype Control)” value (human MET on cells [17]) of the same binder?
The value was 477 fold above isotype control.

What about the “IC50, 6-day in vitro cytotoxicity, A549” value (human MET on cells [6]) of the same binder?
The value was > 100 nM.

What about the “IC50, 6-day in vitro cytotoxicity, EBC-1” value (human MET on cells [6]) of the same binder?
The value was > 100 nM.

What about the “IC50, 6-day in vitro cytotoxicity, Hs746t” value (human MET on cells [6]) of the same binder?
The value was > 100 nM.

What about the “Max % Kill, 6-day in vitro cytotoxicity, A549” value (human MET on cells [6]) of the same binder?
Its value is 0%.

What about the “Max % Kill, 6-day in vitro cytotoxicity, EBC-1” value (human MET on cells [6]) of the same binder?
The value was 11%.

What about the “Max % Kill, 6-day in vitro cytotoxicity, Hs746t” value (human MET on cells [6]) of the same binder?
Its value is 7%.

And the “FACS Binding (MFI Fold Above Isotype Control)” value (human MET on cells [18])?
Its value is 39 fold above isotype control.

B4: H4H13312P2 (antibody, human IgG4, V domains shown)
VH: B1 VH 2
VL: not shown
notes: human IgG4 Fc (H4H), bivalent monospecific; also called parental antibody 2; M2
How did the Kd [7] turn out when B4 was run?
Its Kd is 2.79 nM.

And the T½ [7]?
The T½ was 6.7 min.

What about the Kd [8] of the same binder?
Its Kd is 227 nM.

And the T½ [8]?
Its T½ is 0.7 min.

And the “EC50 (read off the curve); HGF-independent SRE-driven luciferase signal in HEK293T cells” value [19]?
Its value is ~0.5 nM.

And the “IC50 (read off the curve); blocking of HGF-dependent SRE-driven luciferase signal in HEK293T cells” value [20]?
The value was ~0.4 nM.

And the T½ [9]?
Its T½ is 1.4 min.

B5: H4H14639D (bispecific antibody, human IgG4, V domains shown)
VH 1: B1 VH 1
VH 2: B1 VH 2
VL: not shown
notes: MET x MET bispecific, expressed as human IgG4; also called bispecific antibody No. 122; MET×MET bispecific antibody
Which results are given for B5?
T½ [21]: 70.8 min; koff [21]: 0.000163 s⁻¹; IC50 (read off the curve); blocking of HGF-dependent SRE-driven luciferase signal in HEK293T cells [20]: ~0.4 nM; T½ [9]: 70.8 min; koff [9]: 0.000163 s⁻¹
